Results from the supplement of paper PMC12636428.

System: Saccharomyces cerevisiae
Test: transcriptional activation domain activity (GFP:mCherry ratio, weighted mean of sorted bins, harmonized to initial dataset scale) (arbitrary fluorescence ratio units); higher = stronger transcriptional activation
Conditions: beta-estradiol 1 µM; induction time 4 h
Summary of the method: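 Protein tiles carrying barcodes and fused to an estradiol-inducible synthetic transcription factor were placed at the URA3 locus of yeast diploids with a GFP reporter. Following 4 hours at 30 °C in SC with 1 uM beta-estradiol, cells were sorted into 8 GFP:mCherry bins, barcodes were sequenced, and tiles with fewer than 50 reads were discarded. Activation activity is given as the read-weighted mean of bin median fluorescence, averaged across barcodes and linearly mapped to the initial dataset scale.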

Sequence	transcriptional activation domain activity
GEGERGSDGRQKEGARERGRRRETRKQNQKRGRGGRGGRGRGEGGAKSETQET	17200
GEGESADERRRRRHKRKRDGSDEEDEEERGRKRSRRSKGSDDDRSGDDDEDDE	25600
GEGKRGGVGKKGKGKTKGKEGSIGKSNAKKGASETPKKEKEKARGAEASDKGS	45600
GEGRAGGGRGGRKDSRDDRRGNRNSSNERDRSRNRRNSNGNNRSKKNDSDRGR	24400
GEGSAEDGGGSSEPRRLRRSHEACSRCRGKKIKCDSKHPRCTACATANTQCTQ	25100
GEIAQLWDFNVDQFNMTPSNSSGSATISAPNSFTSDIPQYNHGSLGNSVSKSS	48300
GEIVQIDLPLYGKSGQNRGKAALEYSDSLSAQKAASHMTGGQIDGAVVKVELS	66000
GEKAEGANGEGSGAEGSRRRPSGRGRGRGRGRGGRGGRGGRATNEAGDEKKEG	22500
GEKATEAANGEGSGTEGSRRRASGRGRGRGRGRNGRGGARGGRAGDAEEKKEG	9280
GEKEASGENTSNGTTATTVKPSSSSDEEKAAKKENKEAATTTNNGIKNSATAS	30300
GEKGRKGGAEEGERRREEGGGRRRDEGERRGEGGAGSREGTGRAGEQGERGSR	19200
GEKRKRGGEGKGEDDDDDDDDDRGQEGDGKRGSEDTGGGSKKGRRRRKRGKGH	22600
GELLYIILSIVDVDLICRFTIIHPIPTFDNLTALNMVIDRMQEVGLYLVYDMR	52300
GELQFCYITGMVLGNLACMEQWGNIVRVIFRAFRLALDSPVFFRKVIQAIHTQ	80700
GELRLPELQAIGISGGMSLLQDAVFMDGRPEASPLFKIIHLLKRASHWKLGRS	46300
GELYIYRLISSGLIFDTLWSLVTFGHPKGHPLPQYPCTVDMPDDFFRVRLVCV	65900
GERDIDVSSIEDVVKRECKKRVENEKLAQVGYAYDLAHSKAAAHLEAVKKLRK	32900
GERGRGGEEERRGRGRGRGREEREREKERRERERRRRREEEEERGEEERRGRR	29400
GESDDEGGGGRKRKKAKVEPAPKVKVERKPAAPVQEGEKKKRGRPRKVAPLPA	24400
GESKEERRSKKDKKRKREAEGVPAEEEASEVQDKKKKKSKNASAMEVDSATPT	30900
GESNASLTKTLDSVLRNCFPQRSRMVLPVELPLDVFVCIVHFLLVRQFEYGQE	49700

Sequence	transcriptional activation domain activity
GESSSKPPKKRGRPRKNPLPPAEPSGADEGETSAPAAEPNPPKRKRGRPRKDS	34600
GETVFYKGQGKKRQEIRAPLRRGMALLHRHGHECLLHEGTQVLKGIKYVLRSD	54600
GEVSEAEANGATTQAEDGATPAEGADKKKKKKKARKSKKAADAAAGGAEKPAE	17900
GEVTEAEANGEAPKPEGEAAAEASPKPRKKKSPRKKKAAAPAEGEAAATEATA	19600
GEVTQKTRKGSTKHAQRATSGKASEKRRELSRKRKGRRKENARADDGTGEEEE	17400
GFAKDTQDEEYVQHHDNVNPTIPPPDNYILNNENDDGLDNLLGMDYYNIDDLL	101000
GFCMASKTLALVLRHLRRYRWCLVARIRRKATEISTRFCALGGILIIYIRNVS	73500
GFFFAIACLFICQGWMLGGDQSIKSISLGGGFLCLFFFSLFSFLFASWCVWLC	38700
GFHHLLPVFQMLLFKLDHRLYMNIGDVAKFLNITTINVLLLQLTDLHSLINIP	54900
GFLLLLLLLFVFSLVVVHGIVSVSVFYQFFRPYCRFFLFYPYWFIYFLFCLLA	58500
GFLLSYSLIRLSLTSHLLFGVFLLIQDIMLVLFSLYPTYPILLFSFLIFIGSF	35500
GFMLIFWNLAGVPLSYCHCSIFVANHLDTITSWGGDFRLPLLVLLFTSYLFMY	42000
GFRFAVAVIDNIQTMKHETMGSYVTLIMNMHITQAVAVWFYSCIFTFKLGQAI	62500
GFRNFVERLTFCLLEDRVRIAMMQPEQPRYLHSFVSSVMGLNWMVQRWLCLPR	47600
GFSCHTRILGRPIIISTSTSYIGILLDLVRTFYFLYLLLRILLKVFLAVWCFL	63700
GFSRTAGAKSMPASRRTSASGDDDELAGHLQGLSLAGERSNRVSPAPAPVSAS	44900
GFSVDPIVSLLYRAFTMMDVTFLRTVCFDIFSRYSTAELALVNQAFTAKHKKK	40700
GFTFYFSLHFHIFHIFHYLWEPRATILFFLTSLLFFFFTPIFTFMHCIIFIGF	78900
GFTTLSMMHATVFHGDLISFKHFLELYRHSPLLILYICGYKNTEYYAARYFYS	34700
GFVDVTEQVCGWPMGPWSDDEKLKELGRWNLRNWEEGMEGWILMLYTRFLGWS	69700
GFVGENSASASVVEVLLRTGGFSTRSLRRRLLETFQLVLEVTHSLAFIKPGGK	53300

Sequence	transcriptional activation domain activity
GFVLPLFFNSLCPMIPIGFSFVFHFFSHFSFLPIVCFPFPFHLFDTLGSFFFR	33100
GFVVQQLQKLFLTCIALKLVQRVNSLNKLFKTAVGSLPVILSLLGLWIILFLF	47200
GGAAAKESESKSSASTSKASISKGKDEQGAGASGGNKKGGGGKATTKRGRKKG	29400
GGAAGARKGAKRPKRAVGGAAAAAGGKKSADSDDEKPKEKSAPSGGGSKVGGI	36600
GGAAKPAFGAAPSGGLFGSTANTTANTGGFGGGFGSGTTAASTSSPFGGGAAS	27700
GGAAPAAAPADNRPPEERYAEQLRQLNDMGFFDFDRNVAALRRSGGSVQGAIE	44000
GGAARVDREEMPGVTLCLRHLSACVLGVFLVESSKKVLVVVRTEPITLSKSFG	45200
GGADTKQGAKIACLECRTAKIKCSAPTDGVVPCRRCVRHGRECIFEKHRRGRK	42200
GGAGKGKGAAAAAAKAAGAARDVEDIVAREPEPHHKGAGGAGKGKGAAAAAAK	41900
GGALSHHEIRVHWAPSWVSSRAPCSTRGLGCKPGVSLIETVVRAVVLMSCARK	46200
GGDSVVDILFSQTSATEFVTVGGTGNVYHWDMEYSFSRNDDDNEDEVRVAAPE	38300
GGEDALGRAAEEEGVRSGGLSSEQQDREEARGEARDRQHRVACFGGRRECAGG	48500
GGEDIAAAENTGGSPAAGSGRGRGRSSRGGRGRGSGRGRGRGGSNAAGGSAAG	16500
GGEEEEGAPKRPAKKARPSVESEAEVKEEEEEEDAVKPKRGRRTAKSASSSRK	27300
GGEEGRRKEREAGGRGTQKGEEEGDEVGRGGRGRRQREGRERGEARAGAGRRR	30800
GGEGALTVAASARERERERERDREEREKREKRERARESQAVKRKKRPAEKEPP	38000
GGEGEKKKREGKEGREKRGGRRKKGRGKKGRGREGRKKGKRKREGKGKKGEKR	24600
GGEGGAARNGRKRAENARRGREGGKERGPGNKTVAGQEAGGRGHREDRGGSDR	40500
GGEGRGGHPAACRGGCFARYPFTPSFLLYFLLLFFYRGVHVPISFFFLFLFLF	46500
GGERREREEGTERREKEEAGRRRRESGRGQEGKKRGEGGGGRKKRGRDGGGPG	38500
GGETAAPPAEPAPAPAAEPEEEEEPVKGKGKGGKGGKKGGKGGKKAKKEEVPA	23600

Sequence	transcriptional activation domain activity
GGETEGESPEAPVPGGETPSEGGETETPSEGGETEGESPETPVPGGETPSEGG	16800
GGGEAQKPRPAAERKKQEANGHAHHDHSQGNHHGHRHKHAKDAKKAEDGGARK	32500
GGGGAGEEDAKGKARADEDVRESSRAKSTSKRKTSAAASGSESDSASSSSSYS	14900
GGGGDNAAAGEKNSSSSSNSHHNSSKKSGRGGRSNSESRNEGGGRSTAGGGSA	31800
GGGGGGAEGARGANESGGRGDGRRRGAGARARARQGGRGRGGGGRGGTKGGRG	9940
GGGGGGGGSYGAFGGGGKTCYTCGGVGHLSRDCVQGSKCYNCSGIVRDVILVE	67800
GGGGGSSRKRARGGESEDEAAGARANGVGNGPSNGKGKEKGKEVVDDGVAVGS	55900
GGGGGVGGEKGEEGGGEEEEDEEEEEEEGEEDEEEEGGGAAAKEKGKGKGKGK	8640
GGGGQKRKAGAAQDDASSQQPKKKKAKKGGKGKGAQQQKQQGGASGSGGGQAS	31500
GGGKGHEDGYMREVRVVPAYLLVEIINRKENRKERVGAKLLLTRACVLGLYTL	45400
GGGNRGRWPGDDSSDSSSSENERRGRRERRRRHRRRSASPDARRSGKGDAPKQ	< 6570
GGGSAVWIFLYCVWYYFVKLQITGFLSSLLFFSYSLMACCVYGLLTGMVGFLT	60400
GGGSEERGGRGRQEGGKDREAGGRERGSAGEREETEGGTGAEGGGGGERRQGE	32300
GGGTAARSAGSSSREEERGQRRHGRGERGREGADAGRKGGREGTREALAGKGR	30800
GGGTDPRHLHVVSVMLVKGVPFYGYHIGYSYFLKVSLVNPSRMFVALEQLRKP	30000
GGIIMAFFLRLNFGLWGICIALFGLRGQAELPLLIHVQRHILSIYVIIPRWFW	56300
GGISKGENAHNFQNDTKKNMSTSNLFPFSFSNTDLTALFTHPEGPNCTNTNNG	56600
GGKAKGRKGKEKEKEKEVADKPAARKCAAPKAAPKKATVKKAAKKVKETGKGS	28700
GGKEEGGEETGERATKQQKTTPQESNKGSQGGNNNQRQGGGRNRHGRNRNGGG	30400
GGKKGGRTKGATARDKSPEGRTDRPASKGKSLKTGGEDGKGKKSGERAGKLAH	60400
